For one substance, proportion of conjugated ferritin results are on record in publication PMC10321299.

For this assay, the target named is SpyCatcher-tagged ferritin. Description: SDS-PAGE of the covalent conjugate; purified SC-FN and rePO-ST mixed in vitro overnight (12 hours) at 4 °C in molar ratios 1:8 to 1:28; isopeptide bond between SpyTag and SpyCatcher; new band on SDS-PAGE.

On to “SpyTag-tagged rePO (recombinant PcrV-OprI with SpyTag at the C-terminus) (from UniProt G3XD49 28-294; P11221 25-83)”, for which the proportion of conjugated ferritin was determined as 70%.
